Molecular target: L-selectin (CD62L) on Jurkat T cells (human (endogenous in Jurkat)) (UniProt P14151)
Test: flow cytometry on cells

UniProt P14151, sequence (P14151 39-372): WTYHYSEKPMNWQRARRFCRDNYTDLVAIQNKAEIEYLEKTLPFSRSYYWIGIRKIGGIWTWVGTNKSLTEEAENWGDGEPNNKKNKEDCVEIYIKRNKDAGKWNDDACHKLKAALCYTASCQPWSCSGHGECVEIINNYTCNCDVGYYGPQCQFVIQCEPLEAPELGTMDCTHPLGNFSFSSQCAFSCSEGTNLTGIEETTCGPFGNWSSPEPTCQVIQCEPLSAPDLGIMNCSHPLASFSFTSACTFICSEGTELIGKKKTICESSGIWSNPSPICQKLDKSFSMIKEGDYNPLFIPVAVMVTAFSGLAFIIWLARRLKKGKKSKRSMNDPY

Row | Substance | fold binding (MFI) with DREG-55 mAb, relative to the DREG-200 mAb sample
1 | Human E-selectin-Fc chimera (from UniProt P16581 22-556) (Fc fusion) | 1.4 fold
2 | Human PSGL-1-Fc chimera (from UniProt Q14242 42-320) (Fc fusion) | 1.6 fold

Source: paper PMC3921101
